This note sets out measurements from the nanobody polyreactivity screen of Harvey et al. (2022).

The data set in a line: yeast display, Sf9 membrane polyspecificity reagent, FACS + sequencing; frameworks hold sequencing errors. In a few lines:
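Sorting gates, low and high (top ~1%), were placed on anti-HA fluorescence to track expression and on streptavidin fluorescence to track reagent binding. A clone's polyreactivity label is taken from the gate it came out of. The reagent was 10% biotinylated, detergent-solubilized Sf9 membrane, applied for 1 hour at 4 °C to galactose-induced yeast display cells.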
Regarding “QVQLVESGGGLVQAGGSLRLSCAASGRTFNCYAMGWYRQAPGKERELVAAISNGGNTNYADSVKGRFTISRDNAKNTVYLQMNSLKPEDTAVYYCAARATPAFSRRGYYWGQGTQVTVSS”, the “polyreactivity (PSR sort gate)” value is recorded as “high polyreactivity”.
For “QVQLVESGGGLVQAGGSLRLSCAASGRTFNDYAMGWYRQATGKERELVAGITWRGGSTYYADSVKGRFTISRDNAKNTVYLQMNSLKPEDTAVYYCNAVPRRGYSRRDYWGQGTQVTVSS” the value was “high polyreactivity”; for “QVQLVESGGGLVQAGGSLRLSCAASGRTFNIYAMGWYRQEPGKERELVAAITNNGGRTYYADSVKGRFTISRDNAKNTVYLQMNSLKPEDTAVYYCAAASPWRYGFEYWGQGTQVTVSS”, “high polyreactivity”.
Take “QVQLVESGGGLVQAGGSLRLSCAASGRTFNKYAMGWYRQAPGKERELVAAISTRGGSTYYADSVKGRFTISRDNAKNNVYLQMNSLKPEDTAVYYCAARLTTVGQGFDYWGQGTKVTVSS”: the “polyreactivity (PSR sort gate)” value is recorded as “high polyreactivity”.
For “QVQLVESGGGLVQAGGSLRLSCAASGRTFNPYVMGWYRQAPGKERELVARIRGSGTSTYYADSVKGRFTISRDNAKNTVYLQMNSLKPEDTAVYYCAAAQSKYSFYWGDYYYWGQGTQVTVSS” the value was “high polyreactivity”; for “QVQLVESGGGLVQAGGSLRLSCAASGRTFNQYAMGWYRQAPGKVRELVAAISRPTGRTYYADSVKGRFTISRDNAKNTVYLQMNSLKPEDTAVYYCAKADNRSPVDNGFDYWGQVTQVTVSS”, “high polyreactivity”.
For “QVQLVESGGGLVQAGGSLRLSCAASGRTFNRYAMGWYRQAPGKERELVAVITSDGRTNYADSVKGRFTISRDNAKNTVYLQMNSLKPEDSAVYYCNKRSALSFVYDFDYWGQGTQVTVSS” the value was “low polyreactivity”; for “QVQLVESGGGLVQAGGSLRLSCAASGRTFNSYAMGWYRQAPGKERELVAGITGTGGSTYYADSVKGRFTISRDNAKNTVYLQMNSLKPEDTAVYYCNALRRCQRYWDPYGYDYWGQGTQVTVSS”, “high polyreactivity”; for “QVQLVESGGGLVQAGGSLRLSCAASGRTFNTYAMGWYRQAPGKEREFVAAIRYSGDRTNYADSVKGRFTISRDNAKNTVYLQMNSLKPEDTAVYYCAAVNYFPWWSFEYWGQGTQVTVSS”, “low polyreactivity”.
For “QVQLVESGGGLVQAGGSLRLSCAASGRTFNTYAMGWYRQAPGKERELVAAISSGRRTYYADSVKGRFTISRDNAKNTVYLQMNSLKPEDTAVYYCAKRGRYSYKYDYWGQGTQVTVSS” the value was “high polyreactivity”; for “QVQLVESGGGLVQAGGSLRLSCAASGRTFNTYAMGWYRQAPGKERELVADISVSGGRTYYADSVKGRFTISRDNAKNTVYLQMNSLKPEDNAVYYCAKRIRYNWTFDYWGQGTQVTVSS”, “low polyreactivity”; for “QVQLVESGGGLVQAGGSLRLSCAASGRTFNVNAMGWYRQAPGKERELVASITWSDGSTYYADSVKGRFTISRDNAKNTVYLQMNSLKPEDTAVYYCNVTYGLESSYPRDDYWGQGTQVTVSS”, “low polyreactivity”.
On to “QVQLVESGGGLVQAGGSLRLSCAASGRTFNVNVMGWYRQAPGKERELVAAIRYNGGSTYADSVKGRFTISRDNAKNTVYLQMNSLKPEDTAVYYCNADTFFPFEHGMDYWGQGTQVTVSS”, for which the “polyreactivity (PSR sort gate)” value is reported as “low polyreactivity”.
As to “QVQLVESGGGLVQAGGSLRLSCAASGRTFNVYAMGWYRQAPGKERELVAAISIGGRTNYADSVKGRFTISRDNAKNTVYLQMNSLKPEDTAVYYCAADTRRKYGGMYYWGQGTQVTVSS”, the “polyreactivity (PSR sort gate)” value was “high polyreactivity”.
For “QVQLVESGGGLVQAGGSLRLSCAASGRTFNWYAMGWYRQAPGKEWELVAAISGGGGSTYYADSVKGRFTISRDNAKNTVYLQMNSLKPEDTAVYYCAADVEGWTVESDVYRVGYDYWGQGTQVTVSS” the value was “low polyreactivity”; for “QVQLVESGGGLVQAGGSLRLSCAASGRTFNYNSMGWYRQAPGKERELVAAISATGGTTYYADSVKGRFTISRDNAKNTVYLQMNSLKPEDTAVYYCAADTPPYYAYWDVSFEYYYWGQGTQVTVSS”, “low polyreactivity”.
As for “QVQLVESGGGLVQAGGSLRLSCAASGRTFNYYAMGWYRPAPGKERELVAAISGSGGRTYYADSVKGRFTISRDNAKNNVYLQMNSLKPVDTAVYYCNADVGKYPYAHTYWARRYYYWGQGTQVTVSS”, the entry is “high polyreactivity”.
For the sequence “QVQLVESGGGLVQAGGSLRLSCAASGRTFPAYAMGWYRQAPGKERELVAAISRGGSTYYADSVKGRFTISRDNAKNTVYLQMNSLKPEDTAVYYCAARYSYYRQGDSWYNYNYWGQGTQVTVSS”, the “polyreactivity (PSR sort gate)” value is “high polyreactivity”.
“QVQLVESGGGLVQAGGSLRLSCAASGRTFPAYAMGWYRQAPGKERELVAAISSGTSTYADSVKGRFTISRDNAKNTVYLQMNSLKPEDTAVYYCAAGYDRVHSVAGYDYWGQGTQVTVSS”: the “polyreactivity (PSR sort gate)” value is on record as “low polyreactivity”.
As for “QVQLVESGGGLVQAGGSLRLSCAASGRTFPAYAMGWYRQAPGKERELVAAISYSGGRTRYADSVKGRFTISRDNAKNTVYLQMNSLKPEDTAVYYCNRVIPTQSLRDYYWGQGTQVTVSS”, the entry is “high polyreactivity”.
As for “QVQLVESGGGLVQAGGSLRLSCAASGRTFPAYAMGWYRQAPGKERELVAGISKRGGSTYYADSVKGRFTISRDNAKNTVYFQMNSLKPEDTAVYYCNAEGHLFRYDSWGQGTQVTVSS”, the entry is “high polyreactivity”; as for “QVQLVESGGGLVQAGGSLRLSCAASGRTFPFNTMGWYRQAPGKERELVARISSGGSTYYADSVKGRFRISRDNAKNTVYLQMNSLKPEDTAVYYCATRYRYYSRLYDYWGQGTQVTVSS”, “high polyreactivity”; as for “QVQLVESGGGLVQAGGSLRLSCAASGRTFPGNAMGWYRQAPGKERELVAAIRWRGGSTYYADSVKGRFTISRDNAKNTVYLQMNSLKPEDTAVYYCATRALGHFDWGQGTQVTVSS”, “low polyreactivity”.
Consider “QVQLVESGGGLVQAGGSLRLSCAASGRTFPGYAMGWYRQAPGKERELVAGISYRGGSTYYADSVKGRITISRDIAKNSVYLQMISLKPEDTAVYFCARDYSRHKGDLWGQGTQVTVSS”, for which the “polyreactivity (PSR sort gate)” value is “low polyreactivity”.
For “QVQLVESGGGLVQAGGSLRLSCAASGRTFPIYAMGWYRQAPGKERELVAAITSYRRGTTYYADSVKGRFTISRDNAKNTVYLQMNSLKPEDTAVYYCTARTLRGGEYKYWGQGTPVTVSS” the value was “high polyreactivity”; for “QVQLVESGGGLVQAGGSLRLSCAASGRTFPLYAMGWYRQAPGKERELVASITTDSSTYYADSVKGLFTISRDNAKYTVYLQMNSLKPEDTAVYYCAATTIPYPYTEFDYWGQGTQVTVSS”, “low polyreactivity”.
For “QVQLVESGGGLVQAGGSLRLSCAASGRTFPPYAMGWYRQAPGKERELVAAISRRAGTTYYADSVKGRFTISRDNAKNTVYLQMNSLKPEDTAVYYCAASDHYRWYVHRWEDPFYYWGQGTQVTVSS” the value was “low polyreactivity”; for “QVQLVESGGGLVQAGGSLRLSCAASGRTFPRNAMGWYRQAPGKERELVAAITTSGGRTYYADSVKGRFTISRDNAKNTVYLQMNSLKPEDTAVYYCAVRYDTLAWYAFYYWGQGTQVTVSS”, “low polyreactivity”.
As for “QVQLVESGGGLVQAGGSLRLSCAASGRTFPSYAKGLYRQAPGKERELVASISRGASTNYADSVMGRFTISRDNAKNCVFLQMNSLKPEDTAVYFWAANDSWVYTYYYWGQGTQVTVSS”, the entry is “high polyreactivity”; as for “QVQLVESGGGLVQAGGSLRLSCAASGRTFPSYAMGWYRQAPGKERELVAAISRSGGSTYYADSVKGRFTISRDNAKNTVYLQMNSLKPEDTAVYYCAAVSRVHFSYIYDYWGQGTQVTVSS”, “high polyreactivity”.
With “QVQLVESGGGLVQAGGSLRLSCAASGRTFPTNAMGWYIQAPGKERELVAVISRNSGRTYYADSVKGRFTISRDNAMNTVYFQMNSLKPEDTAVYYCAADKYTRAYYYWGQGTQVTVSS”, the “polyreactivity (PSR sort gate)” value is given as “high polyreactivity”.
For the sequence “QVQLVESGGGLVQAGGSLRLSCAASGRTFPTNAMGWYRQAPGKERELVARISTRGGSTYYADSVKGRFTISRDNAKNTVYLQMNSLKPEDTAVYYCARRYAVSNQASYYWGQGTQVTVSS”, the “polyreactivity (PSR sort gate)” value is “high polyreactivity”.
As for “QVQLVESGGGLVQAGGSLRLSCAASGRTFPTYAMGWYRQAPGKERELVARITWNGGSTYYADSVKGRFTISRDNAKNTVYLQMNSLKPEDTAVYYCNAAQRIRYYPRYYYGYDYWGQGTQVTVSS”, the entry is “high polyreactivity”; as for “QVQLVESGGGLVQAGGSLRLSCAASGRTFPVNAMGWYRQAPGKERELVASITYSGGSTYYADSVKGRFTISRDNAKNTVYLQMNSLKPEDTAVYYCAADWYRSPYDYWGQGTQVTVSS”, “low polyreactivity”; as for “QVQLVESGGGLVQAGGSLRLSCAASGRTFPVNVMGWYRQAPGKERELVAAITWSGDSTYYADSVKGRFTISRDNAKNTVYLQMNSVKPEDTAVYYCATDYSGLRYDYWGQGTQVTVSS”, “low polyreactivity”.
As for “QVQLVESGGGLVQAGGSLRLSCAASGRTFPYNAMGWYIQAPGKERELVAAISSGGSTNYADSVKGRFTISRDNAKNTVYLQMNSLKPEDTAVYYCAVTGWPRYTWYSYGYWGQGTQVTVSS”, the entry is “low polyreactivity”.
For “QVQLVESGGGLVQAGGSLRLSCAASGRTFPYNAMGWYRPAPGKERELVAAISGRGGSTYYADYVKGRFTISRDNAKNTVYLQMNSLKPEDTAVYYCAARLPWSYYRTQGYNYWGQGTQVTVSS” the value was “high polyreactivity”; for “QVQLVESGGGLVQAGGSLRLSCAASGRTFPYNAMGWYRQAPGKERELVAAISYSGGRTYYADSVKGRFTISRDNAKNTFYLQMNSLKPEDTAVYYCNALGSGREDDYWGQGTQVTVSS”, “high polyreactivity”; for “QVQLVESGGGLVQAGGSLRLSCAASGRTFPYNAMGWYRQAPGKERELVAAISYSGGRTYYADSVKGRFTISRDNAKNTVYLQMNSLKPEDTAVYYCNALGSGREDDYWGQGTQVTVSS”, “high polyreactivity”.
Regarding “QVQLVESGGGLVQAGGSLRLSCAASGRTFPYNAMVWYRQAPGKERELVARITSGVRTYYADSVKGRFTISRDNAKNTVYLQMNSLKPEDTAVYYCAATTYNRFYRAPTSKYDYWGQGTQVTVSS”, the “polyreactivity (PSR sort gate)” value was “high polyreactivity”.
As for “QVQLVESGGGLVQAGGSLRLSCAASGRTFPYNARGWYRQAPGKERELVAAISSRGGSTYYADSVKGRFTISRDNAKNTVYLQMNSLKPEDTAVYYCAAQFRFSGMGYWGQGTQVTVSS”, the entry is “high polyreactivity”.
